Molecular target: Human recombinant Sortilin chimera protein from R&D Systems (#3154-ST) (human) (UniProt Q99523)
Test: SPR (Biacore), Sortilin immobilized on CM5 chip, ligand injected

Sequence of Human recombinant Sortilin chimera protein from R&D Systems (#3154-ST) (human) (Q99523 78-755, change not shown): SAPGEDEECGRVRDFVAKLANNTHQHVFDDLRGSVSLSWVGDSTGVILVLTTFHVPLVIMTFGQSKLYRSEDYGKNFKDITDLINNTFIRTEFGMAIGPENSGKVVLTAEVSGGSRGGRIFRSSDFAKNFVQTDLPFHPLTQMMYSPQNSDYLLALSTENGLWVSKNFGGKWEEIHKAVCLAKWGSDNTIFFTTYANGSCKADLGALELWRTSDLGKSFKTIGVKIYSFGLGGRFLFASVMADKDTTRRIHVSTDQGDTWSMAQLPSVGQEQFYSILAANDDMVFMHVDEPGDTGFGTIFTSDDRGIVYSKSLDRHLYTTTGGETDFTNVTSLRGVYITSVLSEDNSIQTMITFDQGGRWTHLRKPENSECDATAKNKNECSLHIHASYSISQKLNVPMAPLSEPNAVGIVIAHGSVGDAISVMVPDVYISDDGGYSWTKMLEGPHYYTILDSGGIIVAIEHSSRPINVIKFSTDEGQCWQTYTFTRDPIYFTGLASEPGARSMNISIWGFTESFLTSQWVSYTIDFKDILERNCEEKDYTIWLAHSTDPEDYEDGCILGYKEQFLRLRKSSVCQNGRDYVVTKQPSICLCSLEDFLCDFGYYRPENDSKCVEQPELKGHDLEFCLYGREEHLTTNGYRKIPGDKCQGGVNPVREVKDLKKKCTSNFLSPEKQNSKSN

Row | Kd [µM] | Substance
1 | 0.117 | Neurotensin, P30990 151-163 (peptide; modification not given)
2 | 0.0042 | Receptor-Associated Protein (RAP) (ligand)

— patent US20200157151A1, “PEPTIDE COMPOUNDS, CONJUGATE COMPOUNDS AND USES THEREOF FOR TREATING INFLAMMATORY DISEASES” (TRANSFERT PLUS, S.E.C., priority 2017, published 2020)
